Results: patent US12578329B2, “Reagent kit containing polypeptide for use in detection of intermolecular interactions” (SHIMADZU CORPORATION, priority 2021, dated 2026)

Legend:
[1] = Emission value of secretion-expressed luciferase in COS-7 culture medium, coelenterazine substrate; format: biochemical; settings: for emission values (rank order): Experiment 5
Description: (§1) • (1) COS-7 cells derived from the kidney of African green monkey were inoculated in a 24-well dish, and on the next day, subconfluency was attained. • (2) 25 μL of Opti-MEM (Thermo Fisher Scientific™), 400 ng (2 μL) of the plasmid, and 1 μL of P3000 (Invitrogen™, Waltham, MA) were mixed. • (3) 25 μL of Opti-MEM and 1 μL of lipofectoamine 3000 (Invitrogen™) were mixed. • (4) (2) and (3) were mixed together, followed by incubation at room temperature for 5 minutes. • (5) The mixture was added to the medium of (1). • (6) 500 μL of Dulbecco's modified Eagle's medium was added, followed by culturing the cells at 37° C. for 1 day and then collecting the medium. The medium contained secretion-expressed luciferase. • (7) To 100 μL of the medium, coelenterazine was added as a substrate at a final concentration of 5 μM, followed by measuring the emission value by using Enspire multi-mode plate reader (PerkinElmer™, Waltham, MA).
By the same manner as in Experiment 2, the emission value was measured.
(§2) The emission value was measured in the same manner as in Experiment 2 except that the final concentration of coelenterazine was changed to 0.5 μM. […] The emission value was measured in the same manner as in Experiment 2 except that the final concentration of coelenterazine was changed to 5 μM.

[2] = Emission value of secretion-expressed luciferase in COS-7 culture medium, coelenterazine h substrate; format: biochemical; settings: Experiment 5
Description: as §1
as §2, with “that coelenterazine h was used as a substrate in a” for “that the”, “of 5” for “of coelenterazine was changed to 0.5”, “of 25” for “of coelenterazine was changed to 5”

[3] = Stability of protein terminus: Western blot detection of Flag-tag and His-tag in culture supernatant; settings: secretion-expressed luciferase in COS-7 culture supernatant; Western blotting
From the text: In the same manner as in Experiment 2, the plasmid was transfected into COS-7 cells and culture supernatant was collected. Flag-tag added to the N terminus of each secretion-expressed luciferase and His-tag added to the C terminus thereof were detected by Western blotting (SDS-PAGE, Mini-PROTEAN TGX Gel StainFree 4-15% (Bio-Rad™, Hercules, CA)) (FIG. 17). The antibodies used were Anti 6×Histidine, Monoclonal Antibody (9C11), Peroxidase Conjugated (manufactured by FUJIFILM Wako Pure Chemical Corporation, 1:1000) and Monoclonal ANTI-FLAG (R) M2-Peroxidase (HRP) antibody produced in mouse, clone M2 (manufactured by Sigma-Aldrich™, St. Louis, MO, 1/1000), respectively, and detection was performed with Amesham Imager 680 (Cytiva™, Marlborough, MA).

[4] = Emission value of secretion-expressed luciferase in COS-7 culture medium, furimazine substrate; format: biochemical; settings: Experiment 5; furimazine in the concentration recommended by the manufacturer
Description: as §1
The emission value was measured in the same manner as in Experiment 2 except that furimazine, which was available from Promega™ as a NanoLuc® substrate, was used as a substrate in the concentration recommended by the manufacturer.

[5] = Measurement of specific activity (enzyme concentrations adjusted by Western blot signal); format: biochemical
Description: The specific activities of NanoLuc®, ALuc30 wt, and picALuc30 were measured, with their enzyme concentrations adjusted based on the Western blot signal intensity obtained in Experiment 6.

[6] = Emission activity of divided enzyme (Escherichia coli lysates, single or mixed); format: biochemical; settings: Experiment 11-2, coelenterazine 5 μM, Enspire multi-mode plate reader
From the text: picALuc30 was divided to prepare plasmids (pET32 vectors) for expression of polypeptides from position 4 to 22, from position 23 to 120, from position 4 to 47, from position 48 to 120, from position 4 to 77, from position 80 to 120, from position 4 to 90, and from position 91 to 120 of the amino acid sequence in SEQ ID NO: 51. In the same manner as in Experiment 10, the plasmid was introduced into Escherichia coli SHuffle T7 Express lysY, and from the cultured bacterial cells, a lysate was obtained. To 100 μL of a single lysate or a mixture of lysates as specified in FIG. 25, coelenterazine was added as a substrate at a final concentration of 5 μM, followed by measuring the emission value by using an Infinite (registered trademark) 200 PRO plate reader (TECAN). Because the lysate contained luciferase fragments at high concentrations, it was expected that when fragment-containing lysates were mixed, two types of fragments were highly likely to encounter each other and these two fragments could form the original luciferase structure.
picALuc30 was divided to further prepare plasmids (pET32 vectors) for expression of polypeptides from position 4 to 58, from position 4 to 64, from position 4 to 72, from position 65 to 120, from position 73 to 120, and from position 104 to 120 of the amino acid sequence in SEQ ID NO: 51. In Experiment 11-2, emission values were measured in the same manner as in Experiment 11-1 except that an Enspire multi-mode plate reader (PerkinElmer™) was used for emission value detection.

[7] = Experiment 2, coelenterazine 5 μM, medium of transfected COS-7 cells

B1: picALuc48: SEQ ID NO: 53; ALuc48 with deletion of N terminus and C terminus, corresponding to picALuc30 (protein)
chain: HGGLPGKKMPLEVLLELEANAQRAGCTRGCLICLSKIKCTAKMKKWLPGRCESWAGDKETGQGGITEEETVDIPEIPGFKDLEPMEQFIAQVDLCVDCTTGCLKGLANVKCSDLLKKWLPSRCAT
modifications: picALuc48
notes: ALuc48 with deletion of N terminus and C terminus, corresponding to picALuc30
emission value [1, 7]: sufficiently high

B2: ALuc30 wt: artificial luciferase; positions 20 to 212 of ALuc30 (SEQ ID NO: 28) without a signal sequence; about 21 kDa (protein)
chain: HHHHHHHHDIVGVEGKFGTTDLETDLFTIVEDMNVISRDTDVDANRADRGRRGKLPGKKLPLEVLKELEANAQKAGCTRGCLICLSHIKCTAKMKKWLPGRCESWEGDKETGQGGIGEAIVDIPEIPGFKELAPMEQFIAQVDLCADCTTGCLKGLANVKCSALLKKWLPSRCAGFADKIQAQVDTIKGAGGS
modifications: ALuc30
notes: artificial luciferase; about 21 kDa
emission values (rank order) ([1]; coelenterazine 0.5 μM): NanoLuc®>>picALuc30>TurboLuc™>ALuc30 wt>GLuc | emission values (rank order) ([1]; coelenterazine 5 μM): ALuc30 wt=picALuc30>NanoLuc®>TurboLuc™>GLuc | emission values (rank order) ([2]; coelenterazine h 5 μM): TurboLuc™=ALuc30 wt>>NanoLuc®>picALuc30>GLuc | emission values (rank order) ([2]; coelenterazine h 25 μM): picALuc30>>NanoLuc®=TurboLuc™=ALuc30 wt>>GLuc | stability of protein termini (Flag-tag and His-tag detection) [3]: both termini remaining | emission value [4]: low as compared to NanoLuc® and TurboLuc™ | maximum emission value ([5]; Experiment 7): same maximum emission value as NanoLuc® | specific activity ([5]; coelenterazine or coelenterazine h as substrate): the same as the specific activity of picALuc

B3: picALuc16: SEQ ID NO: 52; ALuc16 with deletion of N terminus and C terminus, corresponding to picALuc30 (protein)
chain: KLPGKKLPLEVLKELEANAQKAGCTRGCLICLSHIKCTAKMKKWLPGRCESWEGDKETGQGGIGEAIVDIPEIPGFKDLEPMEQFIAQVDLCVDCTTGCLKGLANVKCSDLLKKWLPSRCAT
modifications: picALuc16
notes: ALuc16 with deletion of N terminus and C terminus, corresponding to picALuc30
emission value [1, 7]: sufficiently high

B4: position 4 to 64 and position 65 to 120: combination of polypeptides of these positions of SEQ ID NO: 51 (SEQ ID NOs: 79 and 83) (protein)
chain 1: GKKLPLEVLKELEANAQKAGCTRGCLICLSHIKCTAKMKKWLPGRCESWEGDKETGQGGIG
chain 2: EAIVDIPEIPGFKELAPMEQFIAQVDLCADCTTGCLKGLANVKCSALLKKWLPSRC
modifications: part of picALuc30
emission value [6]: high emission value

B5: position 4 to 64 and position 73 to 120: combination of polypeptides of these positions of SEQ ID NO: 51 (SEQ ID NOs: 79 and 84) (protein)
chain 1: GKKLPLEVLKELEANAQKAGCTRGCLICLSHIKCTAKMKKWLPGRCESWEGDKETGQGGIG
chain 2: IPGFKELAPMEQFIAQVDLCADCTTGCLKGLANVKCSALLKKWLPSRC
modifications: part of picALuc30
emission value [6]: high emission value

B6: ALuc30Δloop2N1: SEQ ID NO: 54; ALuc30 wt with N terminus (1 to 49) and loop 2 (122 to 128) deleted, Gly-Ser inserted; 14 kDa (protein)
chain: RGRRGKLPGKKLPLEVLKELEANAQKAGCTRGCLICLSHIKCTAKMKKWLPGRCESWEGDKETGQGGIGEAIVGSFKELAPMEQFIAQVDLCADCTTGCLKGLANVKCSALLKKWLPSRCAGFADKIQAQVDTIKGAGGS
modifications: ALuc30_del_loop2N1
notes: ALuc30 wt with N terminus (1 to 49) and loop 2 (122 to 128) deleted, Gly-Ser inserted; 14 kDa
emission value ([1]; Experiment 4, same manner as Experiment 2 (coelenterazine 5 μM)): about half the emission value of ALuc30ΔN1

B7: position 4 to 72 and position 73 to 120: combination of polypeptides of these positions of SEQ ID NO: 51 (SEQ ID NOs: 80 and 84) (protein)
chain 1: GKKLPLEVLKELEANAQKAGCTRGCLICLSHIKCTAKMKKWLPGRCESWEGDKETGQGGIGEAIVDIPE
chain 2: IPGFKELAPMEQFIAQVDLCADCTTGCLKGLANVKCSALLKKWLPSRC
modifications: part of picALuc30
emission value [6]: high emission value

B8: position 4 to 72 and position 104 to 120: combination of polypeptides of these positions of SEQ ID NO: 51 (SEQ ID NOs: 80 and 85) (protein)
chain 1: GKKLPLEVLKELEANAQKAGCTRGCLICLSHIKCTAKMKKWLPGRCESWEGDKETGQGGIGEAIVDIPE
chain 2: ANVKCSALLKKWLPSRC
modifications: part of picALuc30
emission value [6]: high emission value

B9: position 4 to 58 and position 23 to 120: combination of polypeptides of these positions of SEQ ID NO: 51 (SEQ ID NOs: 78 and 81) (protein)
chain 1: GKKLPLEVLKELEANAQKAGCTRGCLICLSHIKCTAKMKKWLPGRCESWEGDKET
chain 2: GCTRGCLICLSHIKCTAKMKKWLPGRCESWEGDKETGQGGIGEAIVDIPEIPGFKELAPMEQFIAQVDLCADCTTGCLKGLANVKCSALLKKWLPSRC
modifications: part of picALuc30
emission value [6]: high emission value

B10: position 4 to 72 and position 23 to 120: combination of polypeptides of these positions of SEQ ID NO: 51 (SEQ ID NOs: 80 and 81) (protein)
chain 1: GKKLPLEVLKELEANAQKAGCTRGCLICLSHIKCTAKMKKWLPGRCESWEGDKETGQGGIGEAIVDIPE
chain 2: GCTRGCLICLSHIKCTAKMKKWLPGRCESWEGDKETGQGGIGEAIVDIPEIPGFKELAPMEQFIAQVDLCADCTTGCLKGLANVKCSALLKKWLPSRC
modifications: part of picALuc30
emission value [6]: high emission value
